Test results as given in the RNAGym collection of RNA variant scans (doi:10.7554/elife.80360).

B1: Hairpin Ribozyme (parent)
chain: GUCCUCUUUCACGUGCGCGUGAAAGAGAGAAGUGAACCAGAGAAACACACGUUGUGGUAUAUUACCUGGUA

Variants of: B1
Assay: self-cleavage, relative activity (ratio to wild type); higher = more cleavage; co-transcriptional

| Variant | self-cleavage |
| --- | --- |
| A35U A44C | 0.267 |
| G34U U60C | 1.42 |
| G34U U60G | 1.34 |
| A35U A64G | 0.465 |
| A35U A64U | 0.178 |
| G34A C37U | 0.915 |
| A35U U70G | 0.874 |
| G34U G69A | 0.93 |
| A36U | 0.602 |
| A36G | 1.03 |
| A36C | 0.659 |
| U33G U67A | 0.146 |
| U33G U67C | 0.111 |
| A36C U70A | 0.958 |
| A36U G40C | 0.101 |
| A36U G40U | 0.126 |
| A36U G54U | 0.325 |
| A36U A41U | 0.868 |
| G34A U58A | 1.09 |
| G34A U58G | 1.36 |
| A36G G57A | 0.148 |
| A36G G57C | 0.124 |
| G34U A45C | 0.213 |
| G34U G51U | 1.04 |

| Variant | self-cleavage |
| --- | --- |
| A35G C48A | 0.198 |
| A35U G56U | 0.221 |
| A35U G56A | 0.143 |
| G34A U70C | 1.05 |
| A35C G42U | 0.342 |
| A35C G42A | 0.129 |
| A36C U55C | 0.0703 |
| A36G A64G | 0.492 |
| A36G A64U | 0.138 |
| A35C U67G | 0.278 |
| G34U C38G | 0.595 |
| G34U C38U | 1.42 |
| A35C A71G | 0.422 |
| G34U A61C | 1.2 |
| G34U A61G | 0.636 |
| A36G A49G | 0.339 |
| G34C A49G | 1.42 |
| A36U G57A | 0.108 |
| A36U G57U | 0.209 |
| G34C A45G | 0.368 |
| A36C U60G | 0.361 |
| A36C U60C | 0.794 |
| G34C G40U | 0.541 |
| A35C G69U | 0.189 |

| Variant | self-cleavage |
| --- | --- |
| A35G A49G | 0.433 |
| A35G A49C | 0.12 |
| A35C U63G | 0.286 |
| A36C A39G | 0.363 |
| A36C A39U | 0.137 |
| G34U A71G | 1.58 |
| G34U A71U | 1.36 |
| G34C A59U | 0.202 |
| G34C A59C | 0.145 |
| A36G U63C | 0.201 |
| A36G U63A | 0.23 |
| G34C C65G | 1.07 |
| G34C C65U | 1.04 |
| A36G G42C | 0.347 |
| A36C G51A | 0.799 |
| A36G G51A | 0.943 |
| A35U A43U | 0.0408 |
| A36G A41C | 1.1 |
| A36C C50G | 0.131 |
| A36C C50A | 0.0511 |
| G34U G56C | 0.409 |
| A36G G40C | 0.122 |
| U33G U58C | 0.119 |
| A35C A44G | 0.0678 |

| Variant | self-cleavage |
| --- | --- |
| G34U C48U | 0.695 |
| A36G A71U | 1.04 |
| A36G U55A | 0.301 |
| A36U A59G | 0.19 |
| A35G A61G | 0.185 |
| A35C U58C | 0.798 |
| G34A A61G | 0.091 |
| G34A C50U | 0.653 |
| A35G U55C | 0.3 |
| A35C U60C | 1.14 |
| A35C U60G | 0.649 |
| A35C U60A | 0.664 |
| A36G C48U | 0.228 |
| A36G C48A | 0.196 |
| G34A A49G | 0.754 |
| G34A A49C | 0.12 |
| A36C A47U | 0.29 |
| A36C A47C | 0.262 |
| A36C A59U | 0.157 |
| A36U G42A | 0.115 |
| A36U C50A | 0.242 |
| A36G A47G | 0.106 |
| G34C G42U | 1.19 |
| G34A A47U | 0.144 |

| Variant | self-cleavage |
| --- | --- |
| G34A A47G | 0.302 |
| G34A A47C | 0.451 |
| G34A A43G | 0.0724 |
| A35G A71G | 0.542 |
| A35G A71C | 1.16 |
| G34C A35C | 1.25 |
| G34C A35G | 1.4 |
| A35U U67G | 0.161 |
| A35U U67A | 0.126 |
| G34U A47C | 1.2 |
| G34A A64U | 0.125 |
| G34A U52A | 1.31 |
| A36U G69U | 0.228 |
| A36U G69C | 0.127 |
| A36U G69A | 0.173 |
| A35G C46A | 0.125 |
| A35U G40A | 0.154 |
| A35U G40C | 0.185 |
| G34C C48G | 0.16 |
| A36G U52G | 0.882 |
| G34C A43G | 0.0982 |
| A35C A64U | 0.192 |
| U33G U60A | 0.0846 |
| U33G U60G | 0.0365 |

| Variant | self-cleavage |
| --- | --- |
| G34C U58G | 1.09 |
| G34C U58A | 1.27 |
| A35U | 0.811 |
| A35G | 0.931 |
| A35C | 1.02 |
| A35U A41G | 0.599 |
| A35U A41C | 0.957 |
| G34A U60G | 1 |
| G34U A41U | 1.53 |
| A35U U60G | 0.343 |
| A36U U53C | 0.593 |
| A36C U52A | 0.768 |
| A36C U52G | 0.558 |
| A35C C46A | 0.0748 |
| A36C C37U | 0.148 |
| A36C C37A | 0.185 |
| G34A G69U | 0.208 |
| A35U A49U | 0.155 |
| G34C U52G | 0.379 |
| A36C A41C | 0.401 |
| A36C A41U | 0.92 |
| A35C U62G | 0.172 |
| A35C U62C | 0.103 |
| A35C U62A | 0.226 |

| Variant | self-cleavage |
| --- | --- |
| A35U A61G | 0.137 |
| A36C C38G | 0.117 |
| A36C C38A | 0.253 |
| A36C C38U | 0.274 |
| A35C U70C | 1.01 |
| A36U A64C | 0.0976 |
| A36U A64G | 0.219 |
| A35U A45G | 0.0965 |
| A35U A45C | 0.112 |
| G34C C66A | 0.693 |
| A35U A59U | 0.117 |
| A35U A39G | 0.433 |
| A35U A39U | 0.391 |
| A35G G57C | 0.268 |
| A36U C65A | 0.502 |
| G34A A35U | 0.569 |
| G34U G54A | 1.3 |
| A36G G54A | 0.715 |
| A36G G54C | 0.544 |
| A36C C65U | 0.118 |
| A35G G68C | 0.236 |
| A35G U53A | 1.25 |
| A36C U63C | 0.259 |
